Drawing on article PMC7910581, this text covers binding for 3 sequences.

For this data set, the target named is T1, Nla28-DBD (Myxococcus xanthus (DK1622?)) (UniProt Q1DD46).
T1 sequence: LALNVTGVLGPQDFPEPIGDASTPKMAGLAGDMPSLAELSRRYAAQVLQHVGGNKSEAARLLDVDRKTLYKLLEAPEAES
The experiment in a line: EMSA. Particulars: EMSA: 25 mM Tris acetate, 8.0 mM magnesium acetate, 10 mM KCl, 1 mM DTT, pH 8.0, 30 min at 30 C; 2 uM Nla28-DBD, 1 ng Cy5-DNA.
In the case of “GCGTCTTCTTGTCCGTACCGCGGAAGCGCAGCAGGTAGGGGTTGGCGTAGAAGATGTTGCCGGGCTCGCGCTTGCCCACCCAGAACGTCTCGGGGGCAATCTCCACCGGCACGAGGCGGAGGTCGGAGCTCTGGCTCGGGCTTGGGACTGGGGCGATGGTGCTGCTCATGGGCGCGGCGTTCCTTCCCTTTCGGGTGTAT (double strand) [Cy5-P1579]”, the binding entry was “binds”. Under “CAGCAGGCGCTCGAGGTCCTCAAGGTCAAGAAGTTCGAAAGCGGCATGGTGGTGGACCCCGTCACCATCGAACCGGAGGCCCCGCTGGGCCGCGCGCTGGAGCTGATGCGCCTTCACGGCGTGTCCGGCATCCCGGTGGTGAAGGGCCAGCGACTGGTGGGCATCGTCACCAGCCGCGACGTGCGCTTCGAGACCAACTT (double strand) [Cy5-P3778]” stands “binds”; under “GCTCGTGTCGCGTCCCTACATCCAGAACGCCGCTCGCAAGGCATTGGTCTCCGCCGTGAAGAGCATTGAGGATGCTCAGCAGGAGCTGGAGAGGACGCAGAAGCAGGAGGTGGAGTCGGCAGGCGCGGTCTCGCAGGCAGGGGGCGCGAAGTCCTCCGGCTAGTCAGGACTGTGCGAGGTCGTGTGGACGCTGTCCCTGT (double strand) [Cy5-P1286]”, “binds”.
